Assay results as given in PMC9684461, “RNA-controlled nucleocytoplasmic shuttling of mRNA decay factors regulates mRNA synthesis and a novel mRNA decay pathway” (Nature Communications, 2021).

T1: TAP-tagged Kap120 (S. cerevisiae, UniProt Q02932 1-1032)
T1 construct: karyopherin Kap120 of S. cerevisiae, TAP-tagged, expressed in yeast; also called Kap120-TAP; source: yeast, in extract, captured on IgG-sepharose
T1 sequence (looked up): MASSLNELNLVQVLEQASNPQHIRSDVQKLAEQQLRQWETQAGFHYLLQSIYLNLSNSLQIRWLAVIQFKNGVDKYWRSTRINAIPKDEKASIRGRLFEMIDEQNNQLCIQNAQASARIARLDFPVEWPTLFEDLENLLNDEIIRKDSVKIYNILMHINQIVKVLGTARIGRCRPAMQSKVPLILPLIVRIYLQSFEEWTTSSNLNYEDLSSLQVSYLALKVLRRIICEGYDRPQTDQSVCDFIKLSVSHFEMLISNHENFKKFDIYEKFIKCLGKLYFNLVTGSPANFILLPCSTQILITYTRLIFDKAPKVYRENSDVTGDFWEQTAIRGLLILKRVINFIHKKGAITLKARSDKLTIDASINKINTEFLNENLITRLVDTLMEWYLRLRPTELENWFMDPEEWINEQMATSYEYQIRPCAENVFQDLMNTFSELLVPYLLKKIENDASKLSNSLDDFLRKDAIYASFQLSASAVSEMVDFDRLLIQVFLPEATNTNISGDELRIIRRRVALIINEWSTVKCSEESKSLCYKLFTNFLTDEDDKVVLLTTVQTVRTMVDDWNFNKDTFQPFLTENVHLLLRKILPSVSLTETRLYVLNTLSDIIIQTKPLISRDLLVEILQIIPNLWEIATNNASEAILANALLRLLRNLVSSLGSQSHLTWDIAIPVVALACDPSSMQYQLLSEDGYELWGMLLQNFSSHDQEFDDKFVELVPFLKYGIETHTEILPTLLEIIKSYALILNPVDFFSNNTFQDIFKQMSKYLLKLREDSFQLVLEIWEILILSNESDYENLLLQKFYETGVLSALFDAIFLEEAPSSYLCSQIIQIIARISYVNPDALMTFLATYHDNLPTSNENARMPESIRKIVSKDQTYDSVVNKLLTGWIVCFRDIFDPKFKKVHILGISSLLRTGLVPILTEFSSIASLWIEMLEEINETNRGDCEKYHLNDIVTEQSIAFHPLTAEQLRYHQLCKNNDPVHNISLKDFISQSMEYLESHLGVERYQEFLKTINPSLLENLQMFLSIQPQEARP

B1: Dhh1 (natural protein, S. cerevisiae (endogenous in yeast), UniProt P39517 1-506, looked up)
chain: MGSINNNFNTNNNSNTDLDRDWKTALNIPKKDTRPQTDDVLNTKGNTFEDFYLKRELLMGIFEAGFEKPSPIQEEAIPVAITGRDILARAKNGTGKTAAFVIPTLEKVKPKLNKIQALIMVPTRELALQTSQVVRTLGKHCGISCMVTTGGTNLRDDILRLNETVHILVGTPGRVLDLASRKVADLSDCSLFIMDEADKMLSRDFKTIIEQILSFLPPTHQSLLFSATFPLTVKEFMVKHLHKPYEINLMEELTLKGITQYYAFVEERQKLHCLNTLFSKLQINQAIIFCNSTNRVELLAKKITDLGYSCYYSHARMKQQERNKVFHEFRQGKVRTLVCSDLLTRGIDIQAVNVVINFDFPKTAETYLHRIGRSGRFGHLGLAINLINWNDRFNLYKIEQELGTEIAAIPATIDKSLYVAENDETVPVPFPIEQQSYHQQAIPQQQLPSQQQFAIPPQQHHPQFMVPPSHQQQQAYPPPQMPSQQGYPPQQEHFMAMPPGQSQPQY
notes: mRNA decay factor Dhh1 of S. cerevisiae, detected with anti-Dhh1 antibodies; source: endogenous, yeast extract
B2: Pat1 (natural protein, S. cerevisiae (endogenous in yeast), UniProt P25644 1-796, looked up)
chain: MSFFGLENSGNARDGPLDFEESYKGYGEHELEENDYLNDETFGDNVQVGTDFDFGNPHSSGSSGNAIGGNGVGATARSYVAATAEGISGPRTDGTAAAGPLDLKPMESLWSTAPPPAMAPSPQSTMAPAPAPQQMAPLQPILSMQDLERQQRQMQQQFMNFHAMGHPQGLPQGPPQQQFPMQPASGQPGPSQFAPPPPPPGVNVNMNQMPMGPVQVPVQASPSPIGMSNTPSPGPVVGATKMPLQSGRRSKRDLSPEEQRRLQIRHAKVEKILKYSGLMTPRDKDFITRYQLSQIVTEDPYNEDFYFQVYKIIQRGGITSESNKGLIARAYLEHSGHRLGGRYKRTDIALQRMQSQVEKAVTVAKERPSKLKDQQAAAGNSSQDNKQANTVLGKISSTLNSKNPRRQLQIPRQQPSDPDALKDVTDSLTNVDLASSGSSSTGSSAAAVASKQRRRSSYAFNNGNGATNLNKSGGKKFILELIETVYEEILDLEANLRNGQQTDSTAMWEALHIDDSSYDVNPFISMLSFDKGIKIMPRIFNFLDKQQKLKILQKIFNELSHLQIIILSSYKTTPKPTLTQLKKVDLFQMIILKIIVSFLSNNSNFIEIMGLLLQLIRNNNVSFLTTSKIGLNLITILISRAALIKQDSSRSNILSSPEISTWNEIYDKLFTSLESKIQLIFPPREYNDHIMRLQNDKFMDEAYIWQFLASLALSGKLNHQRIIIDEVRDEIFATINEAETLQKKEKELSVLPQRSQELDTELKSIIYNKEKLYQDLNLFLNVMGLVYRDGEISELK
notes: mRNA decay factor Pat1 of S. cerevisiae, detected with anti-Pat1 antibodies; source: endogenous, yeast extract
B3: recombinant 6xHis-tagged Kap120 (natural protein, S. cerevisiae, UniProt Q02932 1-1032, looked up)
chain: T1 sequence (looked up)
notes: karyopherin (importin) Kap120 of S. cerevisiae; also called Kap120-6xHis; Kap120-His; source: E. coli, IPTG induced, purified (Ni-NTA)
B4: GFP-tagged Tail of Xrn1 (domain or fragment, S. cerevisiae, UniProt P22147 351-521, looked up)
chain: EKDDIDVEWFNKQLENISLEGERKRQRVGKKLLVKQQKKLIGSIKPWLMEQLQEKLSPDLPDEEIPTLELPKDLDMKDHLEFLKEFAFDLGLFITHSKSKGSYSLKMDLDSINPDETEEEFQNRVNSIRKTIKKYQNAIIVEDKEELETEKTIYNERFERWKHEYYHDKLK
notes: holds NLS1; also called Tail-GFP; linker domain; source: yeast, expressed under ADH1 promoter and terminator; pulled down with GFP-Trap resin and washed

How the values were obtained:
[1] = target: B3; experiment: pull-down; purified Kap120-6xHis mixed with purified Xrn1-FLAG (WT or mutant), 1 h at 4 °C in a rotator; complex captured on Ni-NTA, Western blotting; Xrn1-FLAG intensity normalized to Kap120
TAP-tagged Kap120 = target: T1, TAP-tagged Kap120; experiment: co-IP; TAP-tagged Kap120 affinity purified with IgG-sepharose from extract of optimally proliferating yeast (WT or Xrn1^ΔNLS1/2 cells); co-IPed proteins by Western blotting; signals normalized to Kap120; conditions: partners not purified
Xrn1 WT = Xrn1 WT (Saccharomyces cerevisiae, UniProt P22147 1-1528); experiment: pull-down on FLAG beads, competition by Kap120; Kap120 prevents RNA binding dose-dependently; EMSA: 50 mM Tris-HCl pH 7.4, 150 mM NaCl, 2 mM DTT, 1 mM EDTA, 30 min at room temperature, 6% native PAGE in 0.5x TBE; pull-downs with RNA: 2 mM EDTA, 1 h at 4; conditions: protein: native; tags: FLAG; label: Cy3
Sequence of Xrn1 WT (P22147 whole entry): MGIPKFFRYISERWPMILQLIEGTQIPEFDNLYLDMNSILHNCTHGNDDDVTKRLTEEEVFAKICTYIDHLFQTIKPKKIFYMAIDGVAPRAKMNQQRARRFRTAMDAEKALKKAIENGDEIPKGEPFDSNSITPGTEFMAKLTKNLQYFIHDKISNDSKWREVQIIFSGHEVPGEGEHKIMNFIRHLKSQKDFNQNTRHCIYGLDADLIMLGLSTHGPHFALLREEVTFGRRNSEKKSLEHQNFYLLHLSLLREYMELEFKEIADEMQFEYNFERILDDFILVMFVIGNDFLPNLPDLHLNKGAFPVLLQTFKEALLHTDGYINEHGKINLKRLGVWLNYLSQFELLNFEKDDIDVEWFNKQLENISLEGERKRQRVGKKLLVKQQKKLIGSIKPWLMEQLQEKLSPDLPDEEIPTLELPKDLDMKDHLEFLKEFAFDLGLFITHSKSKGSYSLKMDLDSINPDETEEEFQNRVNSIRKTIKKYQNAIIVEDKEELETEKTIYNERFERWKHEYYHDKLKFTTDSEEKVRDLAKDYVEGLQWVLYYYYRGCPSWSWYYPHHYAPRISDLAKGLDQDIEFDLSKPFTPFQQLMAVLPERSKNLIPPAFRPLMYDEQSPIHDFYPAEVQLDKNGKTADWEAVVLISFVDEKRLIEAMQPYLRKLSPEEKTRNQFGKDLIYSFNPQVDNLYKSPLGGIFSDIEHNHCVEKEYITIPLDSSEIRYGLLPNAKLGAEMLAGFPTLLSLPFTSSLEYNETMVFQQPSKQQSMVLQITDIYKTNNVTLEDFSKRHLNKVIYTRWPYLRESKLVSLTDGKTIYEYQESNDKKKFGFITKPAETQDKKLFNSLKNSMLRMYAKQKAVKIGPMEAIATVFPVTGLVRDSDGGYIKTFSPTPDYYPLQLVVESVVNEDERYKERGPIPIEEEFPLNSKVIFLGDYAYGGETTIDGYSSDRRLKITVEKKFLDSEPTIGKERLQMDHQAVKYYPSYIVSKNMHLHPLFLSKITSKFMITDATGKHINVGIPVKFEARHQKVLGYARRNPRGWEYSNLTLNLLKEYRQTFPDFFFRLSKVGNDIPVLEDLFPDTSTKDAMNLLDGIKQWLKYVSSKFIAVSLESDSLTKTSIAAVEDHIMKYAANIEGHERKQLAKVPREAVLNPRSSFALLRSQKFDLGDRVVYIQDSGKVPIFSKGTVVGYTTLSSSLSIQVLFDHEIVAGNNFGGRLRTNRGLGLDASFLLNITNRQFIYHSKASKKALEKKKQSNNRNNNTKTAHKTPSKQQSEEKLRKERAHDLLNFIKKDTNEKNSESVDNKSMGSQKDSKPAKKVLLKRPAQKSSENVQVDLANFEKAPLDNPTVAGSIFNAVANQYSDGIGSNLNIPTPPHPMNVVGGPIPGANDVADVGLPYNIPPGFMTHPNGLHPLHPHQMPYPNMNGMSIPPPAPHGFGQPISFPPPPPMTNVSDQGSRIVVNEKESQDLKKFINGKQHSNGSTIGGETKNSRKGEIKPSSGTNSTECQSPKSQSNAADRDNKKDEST

[2] = target: T2, FLAG-tagged Xrn1 (wild type) (S. cerevisiae, UniProt P22147 1-1528); experiment: pull-down; purified Kap120-6xHis mixed with purified Xrn1-FLAG (WT or mutant), 1 h at 4 °C in a rotator; complex captured on Ni-NTA, Western blotting; Xrn1-FLAG intensity normalized to Kap120; conditions: both partners purified
T2 construct: 5' to 3' exonuclease Xrn1 (alias Kem1) of S. cerevisiae, called full-length Xrn1 for the FLAG-tagged purified protein; also called Xrn1-FLAG; Xrn1^WT; source: genomically FLAG-tagged strain, in lysate, for the IP with mass spectrometry
T2 sequence (P22147 whole entry): as above

[3] = target: B3; experiment: pull-down; GFP-tagged Tail held on GFP-Trap resin in a small column, washed 3 times; purified Kap120-His added, 1 h at 4 °C; eluted with 2X LSB at 95 °C; conditions: both partners purified

FLAG-tagged Xrn1^ΔNLS1/2 (from UniProt P22147 1-1528) (enzyme)
fold weaker than Xrn1^WT-Kap120 [1]: 4.5 fold

B1
fold reduction of the co-IP in Xrn1^ΔNLS1/2 cells against WT cells (TAP-tagged Kap120): ~5 fold

AUGUACAGUCCGACGAACACGGAGUCGACCCGCAACGCGA (ssRNA) [Cy3-labeled 40 b RNA]
binding result (Xrn1 WT): binds

B2
fold reduction of the co-IP in Xrn1^ΔNLS1/2 cells against WT cells (TAP-tagged Kap120): ~5 fold

B3
binding result [2]: binds

B4
binding result [3]: binds
